We go through one molecule from doi:10.1101/266718 (bioRxiv, 2018).

The target of the test is T1, Dcp1:Dcp2(1-504) (S. pombe, UniProt Q9P805 1-127; O13828 1-504).
T1 sequence (looked up) 1: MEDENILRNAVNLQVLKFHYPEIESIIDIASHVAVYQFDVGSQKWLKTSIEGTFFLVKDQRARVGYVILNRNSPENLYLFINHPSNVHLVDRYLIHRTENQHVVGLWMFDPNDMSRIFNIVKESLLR
T1 sequence (looked up) 2: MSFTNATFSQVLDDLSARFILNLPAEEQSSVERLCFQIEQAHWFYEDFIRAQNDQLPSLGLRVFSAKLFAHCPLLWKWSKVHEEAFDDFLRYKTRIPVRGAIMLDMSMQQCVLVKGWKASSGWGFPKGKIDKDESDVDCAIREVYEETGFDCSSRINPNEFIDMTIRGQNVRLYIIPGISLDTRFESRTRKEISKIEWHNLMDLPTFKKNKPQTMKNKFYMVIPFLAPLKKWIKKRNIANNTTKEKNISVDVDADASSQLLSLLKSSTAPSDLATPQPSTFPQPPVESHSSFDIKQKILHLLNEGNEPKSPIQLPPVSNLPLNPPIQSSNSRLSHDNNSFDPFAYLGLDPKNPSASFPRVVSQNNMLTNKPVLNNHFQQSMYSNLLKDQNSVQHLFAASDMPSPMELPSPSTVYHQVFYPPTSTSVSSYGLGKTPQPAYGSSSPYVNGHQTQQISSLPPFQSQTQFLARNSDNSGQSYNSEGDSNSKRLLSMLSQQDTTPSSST
In words: cell-based or functional assay.

B1: Edc3 (natural protein, S. pombe, UniProt O94752 1-454, looked up)
chain: MSVADFYGSNVEVLLNNDSKARGVITNFDSSNSILQLRLANDSTKSIVTKDIKDLRILPKNEIMPKNGTKSPSTNSTKLKSAETYSSKNKWSMDCDEEFDFAANLEKFDKKQVFAEFREKDKKDPAKLLVSHNKSPNRNYHHKQNVLGPSVKDEFVDLPSAGSQINGIDAVLSSSSNGHVTPGSKKGSRETLKKKPFVDENIPAELHTTTGDILKPITPEQLSQGIALAIAKTSTDIVVENAAQLLSQFVFSVLGGHKRLSSRNHNSQPLVCILVGSHDHASAAVAAGRRLCAIGIKVVLRLLTPFNVDNRQLLMFQAAGGYIPTENFDQFLNKLTSPIELVVDVLTGFHPSIDKNSHALIQWANDLNVLILSVDIPSGYTVQKKNTAILPKWTLALGAVTTTLAQAALVKQAAGVSVFVGNLGTGSQTWAELGILESQVTGQYLAQISCTSTN
With B1, the “stimulation of the decapping rate of Dcp1:Dcp2ext by excess Edc3” value was determined as 30 fold.
